These results are taken from patent publication US20260131000A1 (Memorial Sloan Kettering, published 2026).

Changes are numbered by the printed parent chain.

The chains are these.
B1: Fab Construct 2 (humanized 76H12 Fab) (Fab, V domains shown)
VH: QVQLVQSGAEVKKPGASVKVSCKASGYTFTSYWMHWVRQAPGQGLEWMGNVYPGSGSTKYAQKFQGRVTMTRDTSTSTVYMELSSLRSEDTAVYYCARPGNYEGFAYWGQGTLVTVSS
VL: NIQLTQSPSSLSASVGDRVTITCRASESVDSYGSSFMHWYQQKPGKPPKLLIYLASNLESGVPSRFSGSGSGTDFTLTISSLQPEDFATYYCQQNNEDPWTFGQGTKLEIK
notes: domain: CH1; also called Fab 2; h76H12_Hv0/h76H12_Lv3; not shown: constant region of human kappa light chain
B2: Fab Construct 1 (chimeric 76H12 Fab, parental mouse 76H12 V-regions) (Fab, V domains shown)
VH: QVQLQQPGSDLVRPGTSVKLSCKASGYTFTSYWMHWVKQRPGQGLEWIGNVYPGSGSTKYDEKFKTKATLTVDTSSNTAYMELSSLTSEDSAVYYCTRPGNYEGFAYWGQGTLVTVSA
VL: NIVLTQSPASLAVSLGQRATISCRASESVDSYGSSFMHWYQQKPGQPPKLLIYLASNLESGVPARFSGSGSRTDFTLTIDPVEADDAATYYCQQNNEDPWTFGGGTKLEIK
notes: domain: CH1; also called Fab 1; chimeric Fab; not shown: constant region of human kappa light chain
B3: 143G03 (antibody, V domains shown)
VH: QVQLRQSGAELVRPGTSVKMSCKASGYTFTNYYIHWVKQRPGQGLEWIGKIGPGSGSPYYNGMFKDKATLTVDTSSSTAYMQLSSLTSEDSAVYFCARWLLPFDYWGQGTTLTVSS
VL: QIVLSQSPGILSASPGEKVTMTCRASSSVNYMHWYQQKSGSSPKPWIFATSILASGVPPRFSGSGSGTSYSLTISSVEAEDTATYYCQQFSSDPLTFGAGTKLELK
B4: 14A10 (antibody, V domains shown)
VH: EVQMVESGGGLVQPGGSLRLSCAAPGFIFSSYNMNWVRQAPGKGLEWVSYISSSSSTTYYADSVKGRFTISRDNAKNSLYLQMNSLRDEDTAVYYCASLYSGYDYYYYYGMDVWGQGTTVTVSS
VL: DIVMTQTPLSSPVSLGQPASISCRSSQSLVHSDGNTYLSWLQQRPGQPPRVLIYKISKRFSGVPDRFSGSGAGTDFTLKISRVEAEDVGVYYCMQATQFPFTFGPGTKVDIK
B5: 13G04 (antibody, V domains shown)
VH: QVQLVQSGAEVKKPGASVKVSCKASGYTFIGYYLHWVRQAPGQGLEWMGWINPNSGGTNSAQKFQGRVTMTRDTSISTTYMDLSRLRSDDTAVYYCARGGLERRDAFDIWGQGTLVTVSS
VL: DIQMTQSPSTLSASVGDRVTITCRASQSISNWLAWYQQKPGKAPNLLIYKASSLESGVPSRFSGSGSGTEFTLTISSLQPDDFATYYCQQYDTYRTFGQGTKVEIK
B6: 13F04 (antibody, V domains shown)
VH: QVQLQQPGAELVKPGASVKLSCKASGYIFISYWMHWVKQRPGQGLEWIGEINPRNGRTNYNEKFKSKATLTVDKSSSTAYMQLTSLTSEDSAVYYCARGGDYGGSFDYWGQGTTLTVSS
VL: B2 VL with N1D, S34N, L54R, V62I, I79V, D80N, A87V, N95S

One experiment deals with human L1CAM overexpressed on HEK293T cells (human, UniProt P32004 20-1257). In words: flow cytometry on HEK293T cells overexpressing L1CAM (panel HEK293T-L1CAM), GMFI ratio to 2nd only against log[Fab], nM. The source says: A total of 11 humanized 76H12 Fab variants (Fabs 2-12) were generated in addition to a chimeric 76H12 Fab (Fab 1) containing the parental murine VH and VL sequences. The chimeric Fab served as the benchmark for comparative assessment of humanized Fab variants. […] All humanized variants bound to the L1CAM overexpressing cells, with most binding comparably to the chimeric 76H12 Fab. […] Here, recombinant L1CAM-Fc fusion protein was immobilized onto anti-Human IgG Fc Capture (AHC) biosensors and binding of Fabs was measured kinetically over a 3-200 nM concentration range. Kinetic data were fitted to a 1:1 binding model to compute association (kₒₙ) and dissociation (koff) rate constants, in addition to equilibrium dissociation constants (KD) as shown in Table 59. […] From these, Fab 3 represents the preferred humanized variant given higher identity to human germline IGHV1-46 and IGKV1-39 sequences resulting from fewer human-to-murine framework back mutations.
Sequence of human L1CAM overexpressed on HEK293T cells (P32004 20-1257): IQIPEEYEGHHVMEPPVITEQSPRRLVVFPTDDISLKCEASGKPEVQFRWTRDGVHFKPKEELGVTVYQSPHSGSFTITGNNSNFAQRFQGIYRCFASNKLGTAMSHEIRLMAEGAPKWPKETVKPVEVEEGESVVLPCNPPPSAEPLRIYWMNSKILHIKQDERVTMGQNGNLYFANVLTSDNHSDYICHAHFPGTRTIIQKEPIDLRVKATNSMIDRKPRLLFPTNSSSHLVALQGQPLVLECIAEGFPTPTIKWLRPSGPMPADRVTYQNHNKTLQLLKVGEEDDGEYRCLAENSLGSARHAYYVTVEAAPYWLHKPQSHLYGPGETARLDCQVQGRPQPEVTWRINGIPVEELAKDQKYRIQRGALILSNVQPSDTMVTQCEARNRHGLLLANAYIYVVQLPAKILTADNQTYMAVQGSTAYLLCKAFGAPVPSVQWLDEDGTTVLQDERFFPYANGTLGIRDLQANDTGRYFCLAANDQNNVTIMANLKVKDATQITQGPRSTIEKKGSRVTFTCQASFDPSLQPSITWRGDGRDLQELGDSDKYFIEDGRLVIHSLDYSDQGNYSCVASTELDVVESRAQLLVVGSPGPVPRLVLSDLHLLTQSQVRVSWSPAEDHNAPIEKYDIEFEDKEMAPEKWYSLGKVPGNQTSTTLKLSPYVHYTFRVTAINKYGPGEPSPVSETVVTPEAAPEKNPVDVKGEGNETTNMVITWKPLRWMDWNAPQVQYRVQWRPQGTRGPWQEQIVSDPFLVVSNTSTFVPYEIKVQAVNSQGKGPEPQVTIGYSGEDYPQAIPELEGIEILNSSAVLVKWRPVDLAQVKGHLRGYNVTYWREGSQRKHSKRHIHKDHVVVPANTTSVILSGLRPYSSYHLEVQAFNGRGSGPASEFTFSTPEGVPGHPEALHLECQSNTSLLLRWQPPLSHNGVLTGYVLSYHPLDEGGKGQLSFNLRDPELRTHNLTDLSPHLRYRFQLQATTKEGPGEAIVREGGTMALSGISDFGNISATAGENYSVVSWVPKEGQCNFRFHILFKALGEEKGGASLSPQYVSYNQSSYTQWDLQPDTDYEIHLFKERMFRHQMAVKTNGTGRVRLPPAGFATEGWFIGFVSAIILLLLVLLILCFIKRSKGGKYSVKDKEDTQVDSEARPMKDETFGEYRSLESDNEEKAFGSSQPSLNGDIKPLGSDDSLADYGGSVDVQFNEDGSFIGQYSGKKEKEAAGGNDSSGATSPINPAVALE
A general note: In flow cytometry, cells or beads pass a laser one at a time.
Turning to B1, the “EC50 (read off the curve)” value was approximately 200 nM.

In the case of B2, the concentration giving a half-maximal response (EC50 (read off the curve)) is approximately 70 nM.

In another experiment the target is L1CAM endogenously expressed on MCF-7 and MDA-MB-231 cells (UniProt P32004). In words: flow cytometry, MCF-7 cells.
B3 returned an EC50 of 0.35 nM.

Regarding B4, the EC50 was 5.3 nM.

In the case of B5, the EC50 worked out at 4.8 nM.

On to B6, for which the EC50 is 1.2 nM.

A further experiment has the same target. The experiment can be described thus: flow cytometry, MDA-MB-231 cells.
B3 came in with a concentration for a half-maximal effect (EC50) of 0.9 nM. This counts as sub-nanomolar.

In the case of B4, the EC50 stood at 8.9 nM. This EC50 is about 9.9-fold higher than that of the molecule before.

In turn, B5 had an EC50 of 6.7 nM.

In turn, B6 gave an EC50 of 1.7 nM.

One may read the EC50 (read off the curve) as the concentration that produces a half-maximal response. The term EC50 denotes the concentration needed to bring the measured effect to its halfway point. High values mean weaker potency, low ones greater potency.
